For 2 substances, stoichiometry N and particles per μm MT (particles/μm MT) results are on record in article PMC5283298.

The target in one assay is HaloTag-KIF21B 1-657. Description: single-molecule photobleaching step counting.
Assay [1] concerns the target microtubules (polymer of alpha and beta tubulin). Kind of assay: single-molecule TIRF microscopy on microtubules.
Assay [2] concerns the target HaloTag-KIF21B full-length (FL). Kind of assay: single-molecule photobleaching step counting.

microtubules (polymer of alpha and beta tubulin), sequence (P68363 whole entry, chain 1 of 2): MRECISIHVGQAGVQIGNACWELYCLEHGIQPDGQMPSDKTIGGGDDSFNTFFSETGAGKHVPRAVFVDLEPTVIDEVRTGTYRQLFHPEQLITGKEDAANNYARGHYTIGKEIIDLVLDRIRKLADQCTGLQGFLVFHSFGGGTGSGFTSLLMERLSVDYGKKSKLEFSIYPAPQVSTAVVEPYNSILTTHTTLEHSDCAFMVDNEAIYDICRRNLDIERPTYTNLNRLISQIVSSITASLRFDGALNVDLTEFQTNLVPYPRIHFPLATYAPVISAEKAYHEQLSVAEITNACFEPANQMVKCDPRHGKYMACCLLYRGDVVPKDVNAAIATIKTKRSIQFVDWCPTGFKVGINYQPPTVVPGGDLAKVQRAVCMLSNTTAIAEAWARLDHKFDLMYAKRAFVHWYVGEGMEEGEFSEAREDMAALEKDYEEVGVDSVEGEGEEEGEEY
microtubules (polymer of alpha and beta tubulin), sequence (A8K068 whole entry, chain 2 of 2, further chain): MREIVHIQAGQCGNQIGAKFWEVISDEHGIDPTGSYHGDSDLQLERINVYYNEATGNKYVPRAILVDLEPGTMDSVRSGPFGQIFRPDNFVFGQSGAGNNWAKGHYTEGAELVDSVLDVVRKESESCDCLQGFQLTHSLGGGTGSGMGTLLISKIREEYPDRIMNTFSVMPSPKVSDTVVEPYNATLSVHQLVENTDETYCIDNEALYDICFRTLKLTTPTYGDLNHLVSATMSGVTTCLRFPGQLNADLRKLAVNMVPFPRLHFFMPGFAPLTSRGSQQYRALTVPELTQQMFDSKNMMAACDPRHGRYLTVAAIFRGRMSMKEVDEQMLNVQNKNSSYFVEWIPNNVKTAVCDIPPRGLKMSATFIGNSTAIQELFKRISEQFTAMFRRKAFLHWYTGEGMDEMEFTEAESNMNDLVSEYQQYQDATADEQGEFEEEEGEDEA
HaloTag-KIF21B 1-657 (domain or fragment), sequence (O75037 1-657): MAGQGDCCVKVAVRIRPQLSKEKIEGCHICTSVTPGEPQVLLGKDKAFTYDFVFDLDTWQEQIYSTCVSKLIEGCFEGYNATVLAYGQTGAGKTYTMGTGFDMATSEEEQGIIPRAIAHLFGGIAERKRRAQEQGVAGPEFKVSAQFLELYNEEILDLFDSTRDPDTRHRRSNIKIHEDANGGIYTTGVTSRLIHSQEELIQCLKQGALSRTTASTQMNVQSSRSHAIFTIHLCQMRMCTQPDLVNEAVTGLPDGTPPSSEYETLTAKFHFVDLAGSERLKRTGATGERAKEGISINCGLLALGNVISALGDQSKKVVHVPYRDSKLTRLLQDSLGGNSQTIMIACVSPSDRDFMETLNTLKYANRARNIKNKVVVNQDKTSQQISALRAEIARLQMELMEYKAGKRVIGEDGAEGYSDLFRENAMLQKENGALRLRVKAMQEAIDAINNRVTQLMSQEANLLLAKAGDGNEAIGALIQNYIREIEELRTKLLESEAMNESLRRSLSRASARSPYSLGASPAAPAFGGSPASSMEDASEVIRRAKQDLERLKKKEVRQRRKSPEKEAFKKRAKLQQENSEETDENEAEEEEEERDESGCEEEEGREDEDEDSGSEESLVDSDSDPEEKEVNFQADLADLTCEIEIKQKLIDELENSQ
HaloTag-KIF21B full-length (FL) (natural protein), sequence (O75037 whole entry): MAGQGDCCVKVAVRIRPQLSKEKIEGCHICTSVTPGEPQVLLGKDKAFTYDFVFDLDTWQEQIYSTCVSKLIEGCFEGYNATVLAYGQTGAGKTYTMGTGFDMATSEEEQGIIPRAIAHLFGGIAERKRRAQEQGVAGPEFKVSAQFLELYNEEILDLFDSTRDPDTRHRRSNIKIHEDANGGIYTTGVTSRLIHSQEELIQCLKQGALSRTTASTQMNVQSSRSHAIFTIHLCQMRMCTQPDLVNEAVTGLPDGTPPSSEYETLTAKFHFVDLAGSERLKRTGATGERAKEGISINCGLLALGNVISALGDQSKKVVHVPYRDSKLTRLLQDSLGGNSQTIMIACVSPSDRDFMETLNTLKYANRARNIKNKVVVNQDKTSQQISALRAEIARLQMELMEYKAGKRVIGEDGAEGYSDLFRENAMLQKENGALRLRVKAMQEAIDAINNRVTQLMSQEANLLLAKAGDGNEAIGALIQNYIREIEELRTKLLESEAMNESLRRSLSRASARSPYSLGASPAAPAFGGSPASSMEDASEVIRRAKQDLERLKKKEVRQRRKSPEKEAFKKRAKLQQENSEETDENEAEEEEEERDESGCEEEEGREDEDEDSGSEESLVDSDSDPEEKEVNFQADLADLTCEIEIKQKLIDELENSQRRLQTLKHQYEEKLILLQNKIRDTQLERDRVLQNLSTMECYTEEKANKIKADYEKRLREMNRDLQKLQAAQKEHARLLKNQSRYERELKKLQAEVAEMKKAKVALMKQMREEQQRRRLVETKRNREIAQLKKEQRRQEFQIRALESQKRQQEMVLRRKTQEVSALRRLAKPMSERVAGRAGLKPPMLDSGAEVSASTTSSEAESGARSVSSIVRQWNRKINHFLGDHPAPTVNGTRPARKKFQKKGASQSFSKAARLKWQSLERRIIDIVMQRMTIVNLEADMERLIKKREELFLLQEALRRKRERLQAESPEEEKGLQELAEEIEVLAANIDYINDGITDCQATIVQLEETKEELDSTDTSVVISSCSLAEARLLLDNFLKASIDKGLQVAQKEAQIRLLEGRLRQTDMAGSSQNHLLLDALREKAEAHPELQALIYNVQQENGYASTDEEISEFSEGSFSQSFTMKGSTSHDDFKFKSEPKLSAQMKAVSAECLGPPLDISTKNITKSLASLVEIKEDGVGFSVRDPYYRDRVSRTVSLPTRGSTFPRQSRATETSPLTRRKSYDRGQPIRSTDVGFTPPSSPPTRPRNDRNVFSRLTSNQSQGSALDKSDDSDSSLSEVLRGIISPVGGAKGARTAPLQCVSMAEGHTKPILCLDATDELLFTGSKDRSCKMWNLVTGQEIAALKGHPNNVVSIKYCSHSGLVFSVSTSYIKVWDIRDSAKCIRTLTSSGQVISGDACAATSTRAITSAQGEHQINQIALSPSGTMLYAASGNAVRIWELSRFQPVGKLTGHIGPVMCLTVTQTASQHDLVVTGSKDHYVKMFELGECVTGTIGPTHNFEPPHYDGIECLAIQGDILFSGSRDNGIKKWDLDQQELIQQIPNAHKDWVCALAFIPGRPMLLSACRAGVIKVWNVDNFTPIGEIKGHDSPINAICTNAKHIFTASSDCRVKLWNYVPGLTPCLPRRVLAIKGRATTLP

“HaloTag-KIF21B 1-657 (domain or fragment)” came in with a stoichiometry N in the assay with HaloTag-KIF21B 1-657 of 2. For the same substance, the particles per μm MT (particles/μm MT) in assay [1] came out at 0.067.

Turning to “HaloTag-KIF21B full-length (FL) (natural protein)”, in assay [2], the stoichiometry N is 2. The particles per μm MT (particles/μm MT) in assay [1] is 0.5.

Usually stoichiometry N stands for a count of units in the complex or per binding partner.
